Results taken from patent publication US20240228562A1, “NOVEL LIPOCALIN MUTEINS SPECIFIC FOR CONNECTIVE TISSUE GROWTH FACTOR (CTGF)” (PIERIS PHARMACEUTICALS GMBH, priority 2021, published 2024).
Numbering of substitutions follows the chain as printed.

Tests used:
human CTGF [1] = target: T1, human CTGF (Homo sapiens, UniProt P29279); assay: SPR binding kinetics and affinity, human CTGF; details: 25° C., 1:1 binding model
T1 construct: purchased Creative Biomart
In short: (§1)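 Biacore SPR at 25 °C; CTGF either Fc-captured via anti-human IgG (HBS-EP+) or amine-coupled to CM5 (300–1100 RU). Muteins injected 180 s contact, 900–3600 s dissociation, 30 μL/min.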

human CTGF [2] = target: T2, human CTGF (Homo sapiens, UniProt P29279, H83D); assay: SPR binding kinetics and affinity, human CTGF; details: 25° C., 1:1 binding model
T2 construct: purchased Creative Biomart
T2 sequence (P29279 with tags, fused parts or gaps H83D): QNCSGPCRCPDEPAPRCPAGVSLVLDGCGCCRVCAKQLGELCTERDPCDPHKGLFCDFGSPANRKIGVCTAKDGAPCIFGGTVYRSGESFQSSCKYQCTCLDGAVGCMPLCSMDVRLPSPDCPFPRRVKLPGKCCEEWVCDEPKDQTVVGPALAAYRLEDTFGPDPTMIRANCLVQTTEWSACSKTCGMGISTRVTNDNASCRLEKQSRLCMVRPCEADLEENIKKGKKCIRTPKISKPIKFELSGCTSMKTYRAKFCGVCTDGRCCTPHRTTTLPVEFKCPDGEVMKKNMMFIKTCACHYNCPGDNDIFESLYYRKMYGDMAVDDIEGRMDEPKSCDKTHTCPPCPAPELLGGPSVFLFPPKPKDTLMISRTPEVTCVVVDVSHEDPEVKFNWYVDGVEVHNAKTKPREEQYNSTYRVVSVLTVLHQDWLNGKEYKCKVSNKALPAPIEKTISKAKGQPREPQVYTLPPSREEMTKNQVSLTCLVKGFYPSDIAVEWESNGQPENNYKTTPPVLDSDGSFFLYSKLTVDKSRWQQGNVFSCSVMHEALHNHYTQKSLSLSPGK
In short: as §1

cynomolgus CTGF = assay: SPR binding kinetics and affinity, cynomolgus CTGF; details: 25° C., 1:1 binding model
Sequence of cynomolgus CTGF (as listed by the source): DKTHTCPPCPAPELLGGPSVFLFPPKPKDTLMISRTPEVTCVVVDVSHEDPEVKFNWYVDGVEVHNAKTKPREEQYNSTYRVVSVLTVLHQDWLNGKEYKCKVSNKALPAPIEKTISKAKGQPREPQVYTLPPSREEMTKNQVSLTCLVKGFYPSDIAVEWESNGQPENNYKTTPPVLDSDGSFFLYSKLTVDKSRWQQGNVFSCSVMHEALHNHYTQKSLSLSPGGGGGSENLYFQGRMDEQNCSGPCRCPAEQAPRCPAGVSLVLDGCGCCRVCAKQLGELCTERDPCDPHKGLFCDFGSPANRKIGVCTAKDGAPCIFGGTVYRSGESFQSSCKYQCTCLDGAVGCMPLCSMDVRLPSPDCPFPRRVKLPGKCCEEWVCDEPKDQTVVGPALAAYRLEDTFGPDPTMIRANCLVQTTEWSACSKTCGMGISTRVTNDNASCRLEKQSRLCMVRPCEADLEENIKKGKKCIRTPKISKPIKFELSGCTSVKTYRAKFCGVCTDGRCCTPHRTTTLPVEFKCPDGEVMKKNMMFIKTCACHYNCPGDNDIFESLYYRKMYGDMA
Experimental: (§2) Surface plasmon resonance (SPR) was used to measure binding kinetics and affinity of the representative lipocalin muteins disclosed herein.
(§3) The binding of exemplary lipocalin muteins to human (Creative Biomart), cynomolgus, rat (R&D Systems) and mouse CTGF (Abbexa) was determined by SPR using a Biacore instrument (Cytiva, formerly GE Healthcare). Some targets were fused to a human IgG1 Fc tag, and captured via the anti-human IgG antibody kit, others were directly immobilized.
(§4) For some measurements, human CTGF with a human IgG1 Fc Tag or rat or murine CTGF without a tag were directly immobilized to a CM5 Chip. The carboxyl groups on the chip were activated using 1-ethyl-3-(3-dimethylaminopropyl)-carbodiimide (EDC) and N-hydroxysuccinimide (NHS). Subsequently, the targets at a concentration of 3-5 μg/mL in 10 mM sodium acetate (pH) 4.5 were applied at a flow rate of 10 μL/min until an immobilization level of 300-1100 resonance units was achieved. Residual non-reacted NHS-esters were blocked by passing a solution of 1 M ethanolamine across the surface. The reference channel was activated/deactivated. For the capture setting, targets with an IgG Fc Tag at 0.25-2.5 μg/mL in HBS-EP+ buffer were captured by the anti-human IgG-Fc antibody at the chip surface for 180 s at a flow rate of 10 μL/min.
(§5) The binding assay was carried out with a contact time of 180 s, a dissociation time of 900-3600 s and a flow rate of 30 μL/min. All measurements were performed at 25° C. […] For the directly immobilized targets, the same regeneration conditions were used. Prior to the protein measurements, three startup cycles were performed for conditioning purposes. Data were evaluated with Biacore Evaluation software. Double referencing was used and the 1:1 binding model was used to fit the raw data.
(§6) The values determined for kon, koff and the resulting equilibrium dissociation constant (KD) for exemplary lipocalin muteins are summarized in Table 4.

[3] = Thermal stability assessment by nanoDSC; format: physicochemical; details: 1 mg/mL in PBS, scan 25-100° C. at 1° C./min
In short: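 CTGF-specific lipocalin muteins at 1 mg/mL in PBS scanned from 25 to 100° C at 1° C/min by capillary nano-DSC. Where several transitions occur, the Tm of the major unfolding event is reported, along with onset temperature. Some muteins were expressed in E. coli, others in CHO cells.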

[4] = system: bleomycin-induced lung fibrosis; assay: Bleomycin mouse model of lung fibrosis; format: in vivo; details: day 14 after bleomycin
Experimental: The anti-fibrotic activity of lipocalin muteins upon local delivery to the lung was evaluated in vivo using a mouse model of bleomycin-induced lung fibrosis. Bleomycin is a DNA damaging agent, also used in cancer therapy, which induces a severe damage of the lung epithelium upon delivery to the lungs of rodents. The injury causes a strong inflammatory response in the lungs which in turn triggers fibrotic response. The peak of fibrotic remodeling, usually observed between day 14 and 21 after bleomycin challenge, is characterized by an excessive deposition of extracellular matrix and destruction of alveolar lung structures. Here, approximately 9 weeks old, male C57BL/6N mice were challenged with bleomycin at a dose of 1 mg/kg or saline as a control via the intranasal route. Animals were treated daily with lipocalin muteins at a dose of 5 mg/kg or PBS as a vehicle control via local delivery to the lungs from day 0 to day 13 after bleomycin challenge. […] Animals were sacrificed at day 14 after bleomycin challenge and level of lung fibrosis was analyzed in formalin fixed, paraffin embedded lung tissues by histopathological evaluation using the Ashcroft score (Matsuse modification) and quantitative digital analysis of IHC detected Collagen1a1 protein deposition.
For determination of the Ashcroft score lung tissue slides were stained according to the Crossman's Trichrome method (Gray, Peter (1954) The Microtomist's Formulary and Guide. Blakiston, New York, 1954). The whole pulmonary area subjected for histopathological analysis was evaluated at ten low magnification fields and total score for each animal was calculated as a mean (Ashcroft et al., Journal of clinical pathology 41.4 (1988): 467-470; Matsuse, T., et al. European Respiratory Journal 13.1 (1999): 71-77.). […]
Collagen1a1 (Col1a1) deposition was analyzed by immunohistochemistry as a second measure for fibrotic lung remodeling. […] Stained tissue slides were evaluated for Col1a1 deposition by digital image analysis using the morphometry protocol (CaloPix software, TRIBVN). […]

Murine CTGF = target: T3, Murine CTGF (Mus musculus, UniProt P29268); assay: SPR binding kinetics and affinity, murine CTGF; details: 25° C., 1:1 binding model
T3 construct: purchased Abbexa
T3 sequence (P29268 26-348): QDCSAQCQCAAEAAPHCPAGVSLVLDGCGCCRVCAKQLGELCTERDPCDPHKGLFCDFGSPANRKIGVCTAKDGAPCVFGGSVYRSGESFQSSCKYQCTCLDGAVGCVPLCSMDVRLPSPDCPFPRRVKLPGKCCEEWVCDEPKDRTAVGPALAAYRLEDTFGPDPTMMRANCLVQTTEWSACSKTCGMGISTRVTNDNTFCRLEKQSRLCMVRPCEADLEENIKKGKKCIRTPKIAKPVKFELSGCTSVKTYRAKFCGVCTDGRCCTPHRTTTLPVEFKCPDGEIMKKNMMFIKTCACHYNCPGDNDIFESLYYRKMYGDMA
In short: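 Targets either amine-coupled to CM5 chip (300–1100 RU; Fc-tagged human, untagged rat/murine) or Fc-captured via anti-human IgG; muteins injected 180 s contact, 900–3600 s dissociation, 30 μL/min, 25° C. Double-referenced sensorgrams fit to 1:1 model giving kon, koff and KD.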

Rat CTGF = target: T4, Rat CTGF (Rattus norvegicus, UniProt Q9R1E9); assay: SPR binding kinetics and affinity, rat CTGF; details: 25° C., 1:1 binding model
T4 construct: purchased R&D Systems
T4 sequence (Q9R1E9 25-347): T3 sequence (P29268 26-348) with H16R, A148V
Experimental: as §2, §3, §4, §5, §6

[5] = mutein 5 mg/kg daily to lung, antibody 10 mg/kg every other day intravenous

T1 sequence (P29279 with tags, fused parts or gaps H83D): as the sequence (P29279 with tags, fused parts or gaps H83D) above

B1: SEQ ID NO: 24: optimized CTGF-binding hNGAL lipocalin mutein (protein)
chain: QDSTSDLIPAPPLSKVPLQQNFQDNQFQGKWYVVGVAGNAILRTDKQPAKMFATIYELKEDKSYDVTSVRFEAKSCKYTIKTFVPGSQPGEFTAGNIKSAPGQTSTLVRVVSTNYNQHAMVFFKHVSQNREIFVITLYGRTKELTSELKENFIRFSKSLGLPENHIVFPVPIDQCIDG
modifications: lipocalin mutein
Question: With B1 as the molecule, how does the “human CTGF koff” value (human CTGF [1]) read?
Answer: Its value is 1.41e-05 s⁻¹.

Question: And the “human CTGF kon” value (human CTGF [2])?
Answer: The value was 157000 M⁻¹ s⁻¹.

Question: What about the “cynomolgus CTGF koff” value (cynomolgus CTGF) of the same molecule?
Answer: Its value is 2.63e-05 s⁻¹.

Question: What about the “cynomolgus CTGF kon” value (cynomolgus CTGF) of the same molecule?
Answer: Its value is 195000 M⁻¹ s⁻¹.

Question: What about the “ONSET MELTING” value [3] of the same molecule?
Answer: Its value is 58 °C.

Question: What about the TM ([3]; major transition) of the same molecule?
Answer: The TM was 72 °C.

Question: And the “Reduction of Ashcroft score vs mean of vehicle-treated animals” value ([4]; mutein 5 mg/kg daily local lung delivery day 0-13)?
Answer: Its value is 14.1%.

Question: What about the “Effect on Ashcroft score” value [4, 5] of the same molecule?
Answer: Its value is “significantly decreased the Ashcroft score”.

Question: And the “Reduction of Col1a1 positive lung surface area vs mean of vehicle controls” value [4, 5]?
Answer: Its value is 25.2%.

Question: And the “Murine CTGF koff” value (Murine CTGF)?
Answer: Its value is 1.16e-05 s⁻¹.

Question: And the “Murine CTGF kon” value (Murine CTGF)?
Answer: Its value is 299000 M⁻¹ s⁻¹.

Question: And the “Rat CTGF koff” value (Rat CTGF)?
Answer: The value was 3.51e-05 s⁻¹.

Question: What about the “Rat CTGF kon” value (Rat CTGF) of the same molecule?
Answer: The value was 138000 M⁻¹ s⁻¹.
